From US20230250188A1 (NATIONAL UNIVERSITY CORPORATION KOCHI UNIVERSITY, published 2023) come the findings set out here.

By Kd is commonly meant the constant that tells how readily two partners part at equilibrium. As a reminder, the koff is the rate constant with which the complex falls apart. The term kon denotes the second-order rate constant of association.

T1: recombinant human GPC1 protein (R&D Systems) (human, UniProt P35052 24-530)
T1 construct: Bought recombinant protein (R&D Systems); also called human GPC-1 antigen; Glypican-1
T1 sequence: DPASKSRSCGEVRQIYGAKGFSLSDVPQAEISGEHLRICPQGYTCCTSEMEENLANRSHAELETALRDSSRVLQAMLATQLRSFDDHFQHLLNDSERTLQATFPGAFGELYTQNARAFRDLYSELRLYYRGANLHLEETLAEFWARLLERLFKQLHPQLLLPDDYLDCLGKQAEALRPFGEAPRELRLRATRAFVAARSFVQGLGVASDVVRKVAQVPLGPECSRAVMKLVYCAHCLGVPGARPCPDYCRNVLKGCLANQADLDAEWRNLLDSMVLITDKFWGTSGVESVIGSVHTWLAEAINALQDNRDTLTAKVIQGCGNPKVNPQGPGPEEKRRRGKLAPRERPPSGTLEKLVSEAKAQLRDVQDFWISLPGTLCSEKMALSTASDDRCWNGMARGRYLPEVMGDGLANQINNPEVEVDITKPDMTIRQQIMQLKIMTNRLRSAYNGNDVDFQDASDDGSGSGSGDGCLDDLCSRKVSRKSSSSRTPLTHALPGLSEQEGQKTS

T2: human GPC1 on the surface of GPC1-positive cancer cells (TE8, TE14, BxPC-3) (human, UniProt P35052 24-530)
T2 sequence: T1 sequence

B1: humanized anti-GPC1 monoclonal antibody clone T28 (antibody, human IgG4 S228P, kappa, V domains shown)
VH: QVQLVQSGAEVKKPGASVKVSCKASGYTFTGYYMHWVRQAPGQGLEWMGEINPSTGDTTYNQKFKARVTMTRDTSTSTVYMELSSLRSEDTAVYYCAREKRDDGVFAYWGQGTLVTVSS
VL: DIQMTQSPSSLSASLGEMVTITCRASESIHSYLNWYQQKPGKAPNLLIYDASNLESGVPSRFSGSGYGTDFTLTISSLQPEDFATYYCQQSYGPPITFGQGTRLEIKR
notes: IgG
B2: humanized anti-GPC1 monoclonal antibody clone T59 (antibody, human IgG4 S228P, kappa, V domains shown)
VH: B1 VH
VL: EIVMTQSPSSLSASVGDRVTITCQASQHISNKLNWYQQKPGKAPKLLIYDASNLETGVPSRFSGSGYGTDFTFTVSSLQPEDIATYYCQQYDNLPITFGQGTRLEIKR
notes: IgG
B3: humanized anti-GPC1 monoclonal antibody clone T22 (antibody, human IgG4 S228P, kappa, V domains shown)
VH: B1 VH
VL: AIQMTQSPASLSASLGDRITITCRTSQTVAGYLNWYQQTPGNAPKLLIYSASNLQSGVPSRFSGSGSGRDFSLTISSLQSEDSATYYCQHSYSTPYTFGQGTKVEIKR
notes: IgG
B4: humanized anti-GPC1 monoclonal antibody clone T32 (antibody, human IgG4 S228P, kappa, V domains shown)
VH: B1 VH
VL: DVVMTQSPGTLSLSPGERATLSCSASQSVSSNLAWYQQKPGQAPRLLIYGTSSRATGVPARFSGSGSGTEFTLTISSLQSEDFAAYYCQQYNSWPLTFGGGTKVEIKR
notes: IgG
B5: humanized anti-GPC1 monoclonal antibody clone T33 (antibody, human IgG4 S228P, kappa, V domains shown)
VH: B1 VH
VL: DVVMTQSPATLSVPPGDRATLSCRASQSVSSRLAWYQQKPGQAPKLLIYGASTRATGIPARFSGSWSGTEFTLTVSSLQSEDSAVYYCQQYNDWPRYTFGQGTKLEIKR
notes: IgG
B6: humanized anti-GPC1 monoclonal antibody clone T43 (antibody, human IgG4 S228P, kappa, V domains shown)
VH: B1 VH
VL: DIVMTQSPSSLSASVGDRVTITCRASQGIRSALAWYQQKPGKAPKLLIYDASNLQSGVPSRFSGSGSGTDFTLTISDVQAEDFGTYYCQQSFGPPRTFGQGTRLEIKR
notes: IgG
B7: humanized anti-GPC1 monoclonal antibody clone T31 (antibody, human IgG4 S228P, kappa, V domains shown)
VH: B1 VH
VL: AIQMTQSPATLSLSPGQRATLSCRASQSVSNYLAWYQQKPGQAPRLLIYDVSNRASGIPARFSGSGSGTDFTLTISSLEPEDFAIYYCQQRSNWPLTFGQGTKVDIKR
notes: IgG
B8: humanized anti-GPC1 monoclonal antibody clone T7 (antibody, human IgG4 S228P, kappa, V domains shown)
VH: B1 VH
VL: AIQLTQSPSTLSASVGDRVTITCRASQSISSWLAWYQQKPGKAPKLLISDASNLASGVPLRFSGSGFGTHFTLTIDNLQPEDIATYSCQQYNNYPFTFGLGTKLEIKR
notes: IgG

One assay concerns the target T1, recombinant human GPC1 protein (R&D …). Description: SPR (Biacore 8K); antibody captured by anti-human IgG (Fc) on a CM5 chip, recombinant human GPC1 flowed over. As to the method:
The mouse anti-human-GPC1 monoclonal antibody was humanized (subclass: IgG4), and the obtained twenty clones (T1, T2, T3, T7, T8, T10, T11, T22, T26, T28, T29, T31, T32, T33, T34, T36, T43, T56, T57, T59) were prepared. An anti-human IgG (Fc) was immobilized on an sCM5 sensor chip (GE Healthcare) using Human antibody capture kit (GE Healthcare), and the affinity of each of these clones to a recombinant human GPC1 protein (R&D Systems) was measured using Biacore (registered trademark) 8K (GE Healthcare).
On the technique in general: In SPR one partner is held on a chip, and binding of the other changes the refractive index at the surface.
On to B1, for which the Kd was 21.7 nM, the koff was found to be 0.00679 s⁻¹ and the on-rate constant (kon) is 313000 M⁻¹ s⁻¹.

For the molecule B2, the equilibrium dissociation constant (Kd) stood at 302 nM, the off-rate constant (koff) turned out to be 0.0593 s⁻¹ and the association rate constant (kon) was determined as 197000 M⁻¹ s⁻¹.

Take B3: the Kd was 218 nM, the koff was found to be 0.0506 s⁻¹ and the kon was 232000 M⁻¹ s⁻¹.

With B4, the Kd was 290 nM, the koff turned out to be 0.0603 s⁻¹ and the association rate constant (kon) is 208000 M⁻¹ s⁻¹.

As to B5, the equilibrium dissociation constant (Kd) was 462 nM, the off-rate constant (koff) was found to be 0.0738 s⁻¹ and the on-rate constant (kon) turned out to be 160000 M⁻¹ s⁻¹.

B6: the equilibrium dissociation constant (Kd) was determined as 62.4 nM, the koff was 0.0106 s⁻¹ and the kon stood at 169000 M⁻¹ s⁻¹.

In the case of B7, the Kd turned out to be 271 nM, the koff was 0.0539 s⁻¹ and the on-rate constant (kon) came out at 198000 M⁻¹ s⁻¹.

As for B8, the Kd was 12 nM, the koff amounted to 0.00411 s⁻¹ and the kon came to 343000 M⁻¹ s⁻¹.

Another assay addresses T2, human GPC1 on the surface of …. Description: cell-based or functional assay.
As for B1, the “IC50 of cytotoxicity on TE14 cells (ATP cell viability, 144 h) with MMAF-linked anti-human-IgG Fab as secondary antibody” value (“IC50 of cytotoxicity on TE14 cells” below) was 0.153 nM.

Consider B2, for which the “IC50 of cytotoxicity on TE14 cells” value stood at 0.37 nM.

B3: the “IC50 of cytotoxicity on TE14 cells” value amounted to 0.745 nM.

Take B4: the “IC50 of cytotoxicity on TE14 cells” value came to 0.888 nM.

B5: the “IC50 of cytotoxicity on TE14 cells” value amounted to 1.86 nM.

Regarding B6, the “IC50 of cytotoxicity on TE14 cells” value is 0.37 nM.

In the case of B7, the “IC50 of cytotoxicity on TE14 cells” value came to 0.688 nM.

For B8, the “IC50 of cytotoxicity on TE14 cells” value amounted to 0.0365 nM.
